# B1: library; numbered along this chain (parent)
# chain: MRKPRAAVGSGHRKQAASQEGRQKHAKNNSQAKPSACDGLARQPEEVVLQASVSSYHLFRDVAEVTAFRGSLLSWYDQEKRDLPWRRRAEDEMDLDRRAYAVWVSEVMLQQTQVATVINYYTGWMQKWPTLQDLASASLEEVNQLWAGLGYYSRGRRLQEGARKVVEELGGHMPRTAETLQQLLPGVGRYTAGAIASIAFGQATGVVDGNVARVLCRVRAIGADPSSTLVSQQLWGLAQQLVDPARPGDFNQAAMELGATVCTPQRPLCSQCPVESLCRARQRVEQEQLLASGSLSGSPDVEECAPNTGQCHLCLPPSEPWDQTLGVVNFPRKASRKPPREESSATCVLEQPGALGAQILLVQRPNSGLLAGLWEFPSVTWEPSEQLQRKALLQELQRWAGPLPATHLRHLGEVVHTFSHIKLTYQVYGLALEGQTPVTTVPPGARWLTQEEFHTAAVSTAMKKVFRVYQGQQPGTCMGSKRSQVSSPCSRKKPRMGQQVLDNFFRSHISTDAHSLNSAAQ
# Variants of: B1
# Assay: 8OG:A repair function score (normalized; synonymous = 0, nonsense = -1) (normalized log-likelihood score); higher = more repair activity (WT-like)
# Details: with 8OG:A DNA repair reporter (GFP) in HEK-293 MUTYH KO cells
# Experimental: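 Saturation mutagenesis (NNN codon scan) of the MUTYH cDNA (521-aa nuclear isoform NM_001048174.1 / NP_001041639), stably expressed under doxycycline induction in HEK-293 MUTYH knockout cells. Cells were co-transfected with an 8OG:A-bearing GFP repair reporter plus mCherry and sorted 72 h later into GFP+ and GFP− bins, three replicates per tile. The Rosace log2 enrichment (GFP+ vs GFP−) was converted per tile to a normalized function score with synonymous variants centered at 0 and nonsense variants (codons 1-471) at -1; low-abundance variants were removed.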
row,Variant,8OG:A repair function score
1,S292N,-0.0335
2,R281V,-0.131
3,Y428I,-1.03
4,L241E,-0.98
5,R213I,-0.997
6,V62E,-0.456
7,K3Q,0.107
8,A115C,-0.0964
9,G258F,-1.24
10,T112V,-0.914
11,K127Y,-0.398
12,R332G,-0.193
13,T439A,0.0597
14,R154A,-0.88
15,T324F,0.00371
16,A238N,-0.887
17,A400H,0.179
18,R42N,0.0413
19,E160F,-0.0745
20,A400K,-0.458
21,D82L,-0.0723
22,G209Q,-0.48
23,T476M,-0.0533
24,L215E,-0.98

row,Variant,8OG:A repair function score
1,L295R,-0.0249
2,R97D,0.00527
3,L516R,-0.0194
4,V242I,0.0144
5,V485M,0.0202
6,L131V,-0.0573
7,A67F,-0.0807
8,I359R,-0.51
9,A520F,0.00424
10,V427I,-0.18
11,E45I,-0.0125
12,K3C,-0.0701
13,R491Q,-0.00572
14,P320L,-0.0348
15,R364N,-0.633
16,V348N,-1.04
17,P264S,-0.0872
18,L411S,-0.29
19,S71L,-0.00671
20,L313F,-0.0503
21,Q435C,0.293
22,D133P,-0.372
23,A223S,-0.27
24,A99S,-0.124

row,Variant,8OG:A repair function score
1,W235Y,-0.177
2,L393W,-0.266
3,T116P,-0.326
4,E342N,0.0275
5,Q286P,-0.093
6,D208I,-1.02
7,K390F,-0.0738
8,R340A,-0.0533
9,A194V,-0.443
10,E382N,0.0107
11,L241R,-1.03
12,R98S,-0.2
13,M462W,-0.592
14,Y56V,-0.015
15,A6M,-0.168
16,V348D,-1.83
17,G479A,0.00119
18,F330T,-0.478
19,R279W,-0.139
20,C216N,-0.84
21,W75L,-2.04
22,N517K,-0.077
23,R87V,-0.0326
24,V107D,-1.44

row,Variant,8OG:A repair function score
1,E413Q,-0.0587
2,A199S,-0.171
3,R389G,-0.385
4,D224C,-0.955
5,T324Y,-0.0755
6,Q351E,-0.219
7,L411I,0.148
8,A99P,-0.584
9,A115E,0.0471
10,R213F,-1.01
11,M496Q,-0.106
12,L355A,0.00558
13,A101R,-0.0207
14,G161V,-0.579
15,V107K,-0.731
16,S138Y,-0.0612
17,N251G,-0.951
18,Q78I,-0.00974
19,P404L,0.0132
20,E275C,-0.0803
21,D82M,-0.077
22,Q50W,0.014
23,Q159S,-0.121
24,S153W,-0.198

row,Variant,8OG:A repair function score
1,Q265A,-0.0137
2,A36M,-0.076
3,V104A,-0.365
4,G471A,0.0172
5,G293H,-0.05
6,S54A,0.00533
7,S515Y,0.025
8,A212T,-0.0386
9,Q351V,0.000574
10,T260I,-0.0181
11,S384K,-0.0507
12,Q282P,-0.526
13,R495I,-0.0255
14,V114C,-0.178
15,E395G,-0.277
16,E92M,-0.0276
17,V274Q,-0.544
18,S71D,-0.0972
19,K390R,-0.126
20,S480Q,-0.00583
21,P44K,0.00377
22,V348F,-0.996
23,N517M,0.0171
24,R156N,-0.179

row,Variant,8OG:A repair function score
1,A254S,-0.223
2,C304A,-0.225
3,T228I,-0.152
4,P273A,-0.171
5,E79C,-0.0344
6,V211I,-0.0557
7,D133V,-0.0608
8,Y120C,-0.227
9,L183G,-0.0301
10,L448S,-0.184
11,T440S,0.0249
12,Y152E,-1.16
13,Q286I,-0.0426
14,E106H,-1.74
15,C272V,-1.12
16,G161C,-0.293
17,R506L,0.00814
18,P34W,0.133
19,P44Q,-0.113
20,L392Y,-0.624
21,S231F,-0.24
22,S226F,-0.371
23,M478Q,0.0193
24,W321C,-0.313

row,Variant,8OG:A repair function score
1,S518F,-0.0829
2,L516P,0.00373
3,G155V,-0.116
4,V328T,-0.077
5,A254C,-0.0862
6,N307P,-0.0382
7,Q202Y,-0.329
8,Q351K,0.044
9,L139Q,-0.0666
10,R97V,0.00683
11,G258C,-1.12
12,P299C,-0.0402
13,Y428A,-1.05
14,V207P,-1.01
15,E451W,-0.143
16,P299V,-0.0192
17,V301N,-0.386
18,L95H,-0.053
19,V211L,-0.586
20,K80T,-0.469
21,A238K,-0.887
22,Y469M,-0.259
23,L325Q,-0.141

# From the supplement of paper PMC11908140
